Test results: patent publication US11965039B2, “Compstatin analogues and their medical uses” (priority 2018, dated 2024)
Starred links: 1 amine or outer side, 2 acyl side, 3 side chain; linkers in the order of their positions; H or OH if unused. Positions of bridges follow the written chain, without caps; N, C: chain ends. Non-standard residues stand in square brackets, D forms with d. Groups on a side chain read outwards from the residue. *: point of attachment. Trp(1-Me) = Cn1cc(C[C@H](N)C(=O)O)c2ccccc21; C18 diacid = O=C(O)CCCCCCCCCCCCCCCCC(=O)*; C16 diacid = O=C(O)CCCCCCCCCCCCCCC(=O)*; γGlu = O=C(O)[C@H](CCC(=O)[*:2])N[*:1]; AEEA = NCCOCCOCC(=O)O; Sar = CNCC(=O)O

B1: Compound 54 (peptide)
peptide: Ac-EGSAYCI[Trp(1-Me)]QDWGEHRC[Sar]E-NH2
modifications: disulfide 6-16
SMILES: CC[C@H](C)[C@@H]1NC(=O)[C@@H](NC(=O)[C@H](Cc2ccc(O)cc2)NC(=O)[C@H](C)NC(=O)[C@H](CO)NC(=O)CNC(=O)[C@H](CCC(=O)O)NC(C)=O)CSSC[C@@H](C(=O)N(C)CC(=O)N[C@@H](CCC(=O)O)C(N)=O)NC(=O)[C@H](CCCNC(=N)N)NC(=O)[C@H](Cc2c[nH]cn2)NC(=O)[C@H](CCC(=O)O)NC(=O)CNC(=O)[C@H](Cc2c[nH]c3ccccc23)NC(=O)[C@H](CC(=O)O)NC(=O)[C@H](CCC(N)=O)NC(=O)[C@H](Cc2cn(C)c3ccccc23)NC1=O
B2: Compound 107 (peptide)
peptide: {C16 diacid}-EGSEYCI[Trp(1-Me)]QDWGEHRC[Sar]E-NH2
modifications: disulfide 6-16; also: places 15-carboxy-pentadecanoyl on side chain of Glu1, mods on N-terminus
B3: Compound 111 (peptide)
peptide: Ac-EGSAYCI[Trp(1-Me)]QDWGEHRC[Sar]EK[γGlu]K([AEEA-AEEA-γGlu-C18 diacid])-NH2
modifications: disulfide 6-16
SMILES: CC[C@H](C)[C@@H]1NC(=O)[C@@H](NC(=O)[C@H](Cc2ccc(O)cc2)NC(=O)[C@H](C)NC(=O)[C@H](CO)NC(=O)CNC(=O)[C@H](CCC(=O)O)NC(C)=O)CSSC[C@@H](C(=O)N(C)CC(=O)N[C@@H](CCC(=O)O)C(=O)N[C@@H](CCCCN)C(=O)N[C@@H](CCC(=O)N[C@@H](CCCCNC(=O)COCCOCCNC(=O)COCCOCCNC(=O)CC[C@H](NC(=O)CCCCCCCCCCCCCCCCC(=O)O)C(=O)O)C(N)=O)C(=O)O)NC(=O)[C@H](CCCNC(=N)N)NC(=O)[C@H](Cc2c[nH]cn2)NC(=O)[C@H](CCC(=O)O)NC(=O)CNC(=O)[C@H](Cc2c[nH]c3ccccc23)NC(=O)[C@H](CC(=O)O)NC(=O)[C@H](CCC(N)=O)NC(=O)[C@H](Cc2cn(C)c3ccccc23)NC1=O
B4: Compound 118 (peptide)
peptide: Ac-SEYCI[Trp(1-Me)]QDWGEHRC[Sar]EGAK([AEEA-γGlu-AEEA-Gly-γGlu-C18 diacid])-NH2
modifications: disulfide 4-14
SMILES: CC[C@H](C)[C@@H]1NC(=O)[C@@H](NC(=O)[C@H](Cc2ccc(O)cc2)NC(=O)[C@H](CCC(=O)O)NC(=O)[C@H](CO)NC(C)=O)CSSC[C@@H](C(=O)N(C)CC(=O)N[C@@H](CCC(=O)O)C(=O)NCC(=O)N[C@@H](C)C(=O)N[C@@H](CCCCNC(=O)COCCOCCNC(=O)CC[C@H](NC(=O)COCCOCCNC(=O)CNC(=O)CC[C@H](NC(=O)CCCCCCCCCCCCCCCCC(=O)O)C(=O)O)C(=O)O)C(N)=O)NC(=O)[C@H](CCCNC(=N)N)NC(=O)[C@H](Cc2c[nH]cn2)NC(=O)[C@H](CCC(=O)O)NC(=O)CNC(=O)[C@H](Cc2c[nH]c3ccccc23)NC(=O)[C@H](CC(=O)O)NC(=O)[C@H](CCC(N)=O)NC(=O)[C@H](Cc2cn(C)c3ccccc23)NC1=O
B5: Compound 119 (peptide)
peptide: Ac-SEFCI[Trp(1-Me)]QDWGEHRC[Sar]EGAK([AEEA-γGlu-AEEA-Gly-γGlu-C18 diacid])-NH2
modifications: disulfide 4-14
SMILES: CC[C@H](C)[C@@H]1NC(=O)[C@@H](NC(=O)[C@H](Cc2ccccc2)NC(=O)[C@H](CCC(=O)O)NC(=O)[C@H](CO)NC(C)=O)CSSC[C@@H](C(=O)N(C)CC(=O)N[C@@H](CCC(=O)O)C(=O)NCC(=O)N[C@@H](C)C(=O)N[C@@H](CCCCNC(=O)COCCOCCNC(=O)CC[C@H](NC(=O)COCCOCCNC(=O)CNC(=O)CC[C@H](NC(=O)CCCCCCCCCCCCCCCCC(=O)O)C(=O)O)C(=O)O)C(N)=O)NC(=O)[C@H](CCCNC(=N)N)NC(=O)[C@H](Cc2c[nH]cn2)NC(=O)[C@H](CCC(=O)O)NC(=O)CNC(=O)[C@H](Cc2c[nH]c3ccccc23)NC(=O)[C@H](CC(=O)O)NC(=O)[C@H](CCC(N)=O)NC(=O)[C@H](Cc2cn(C)c3ccccc23)NC1=O
notes: also called Compound No 119
B6: Compound 120 (peptide)
peptide: Ac-SEFCI[Trp(1-Me)]QEWGEHRC[Sar]EGAK([AEEA-γGlu-AEEA-Gly-γGlu-C18 diacid])-NH2
modifications: disulfide 4-14
SMILES: CC[C@H](C)[C@@H]1NC(=O)[C@@H](NC(=O)[C@H](Cc2ccccc2)NC(=O)[C@H](CCC(=O)O)NC(=O)[C@H](CO)NC(C)=O)CSSC[C@@H](C(=O)N(C)CC(=O)N[C@@H](CCC(=O)O)C(=O)NCC(=O)N[C@@H](C)C(=O)N[C@@H](CCCCNC(=O)COCCOCCNC(=O)CC[C@H](NC(=O)COCCOCCNC(=O)CNC(=O)CC[C@H](NC(=O)CCCCCCCCCCCCCCCCC(=O)O)C(=O)O)C(=O)O)C(N)=O)NC(=O)[C@H](CCCNC(=N)N)NC(=O)[C@H](Cc2c[nH]cn2)NC(=O)[C@H](CCC(=O)O)NC(=O)CNC(=O)[C@H](Cc2c[nH]c3ccccc23)NC(=O)[C@H](CCC(=O)O)NC(=O)[C@H](CCC(N)=O)NC(=O)[C@H](Cc2cn(C)c3ccccc23)NC1=O

Legend:
[1] = biological target: T1, Human C3 (Complement tech cat #A113c) (human, UniProt P01024 23-1663); assay: SPR (Biacore T200), human C3 immobilised, peptide injected, 1:1 fit
T1 construct: Purified protein immobilised by amine coupling in the SPR assay; in the haemolysis assay it is the C3 of diluted human serum; Native C3 consists of a beta and an alpha chain cut from one precursor; also called C3 protein
Experimental: Surface plasmon resonance (SPR) was used to characterize peptides with respect to their binding affinity (Kd) for C3. Human C3 (Complement tech cat #A113c) was immobilised on individual flow cells of CM5 sensor chips (GE Healthcare) using standard amine coupling to a density of approximately 3000 resonance units (RU) in a buffer consisting of 10 mM phosphate pH 7.4, 150 mM NaCl, 0.05% Tween20.
For interaction experiments a multi-cycle experiment approach was used and performed using a BiacoreT200™ instrument (GE Healthcare) at 25° C. Peptides were injected in increasing concentration series (6-8 different concentrations) for 60-120 sat a flow rate of 30 µL/min in a buffer consisting of 10 mM Tris buffer at pH 7.4, with 150 mM NaCl and 0.05% Tween20. This was followed by a dissociation period for up to 10 min. The C3 surface was regenerated between runs by a 45 s injection of 3 M MgCl_2.

[2] = biological target: T1, Human C3 (Complement tech cat #A113c); assay: cell-based or functional assay

T1 sequence (P01024 23-1663 limits assumed): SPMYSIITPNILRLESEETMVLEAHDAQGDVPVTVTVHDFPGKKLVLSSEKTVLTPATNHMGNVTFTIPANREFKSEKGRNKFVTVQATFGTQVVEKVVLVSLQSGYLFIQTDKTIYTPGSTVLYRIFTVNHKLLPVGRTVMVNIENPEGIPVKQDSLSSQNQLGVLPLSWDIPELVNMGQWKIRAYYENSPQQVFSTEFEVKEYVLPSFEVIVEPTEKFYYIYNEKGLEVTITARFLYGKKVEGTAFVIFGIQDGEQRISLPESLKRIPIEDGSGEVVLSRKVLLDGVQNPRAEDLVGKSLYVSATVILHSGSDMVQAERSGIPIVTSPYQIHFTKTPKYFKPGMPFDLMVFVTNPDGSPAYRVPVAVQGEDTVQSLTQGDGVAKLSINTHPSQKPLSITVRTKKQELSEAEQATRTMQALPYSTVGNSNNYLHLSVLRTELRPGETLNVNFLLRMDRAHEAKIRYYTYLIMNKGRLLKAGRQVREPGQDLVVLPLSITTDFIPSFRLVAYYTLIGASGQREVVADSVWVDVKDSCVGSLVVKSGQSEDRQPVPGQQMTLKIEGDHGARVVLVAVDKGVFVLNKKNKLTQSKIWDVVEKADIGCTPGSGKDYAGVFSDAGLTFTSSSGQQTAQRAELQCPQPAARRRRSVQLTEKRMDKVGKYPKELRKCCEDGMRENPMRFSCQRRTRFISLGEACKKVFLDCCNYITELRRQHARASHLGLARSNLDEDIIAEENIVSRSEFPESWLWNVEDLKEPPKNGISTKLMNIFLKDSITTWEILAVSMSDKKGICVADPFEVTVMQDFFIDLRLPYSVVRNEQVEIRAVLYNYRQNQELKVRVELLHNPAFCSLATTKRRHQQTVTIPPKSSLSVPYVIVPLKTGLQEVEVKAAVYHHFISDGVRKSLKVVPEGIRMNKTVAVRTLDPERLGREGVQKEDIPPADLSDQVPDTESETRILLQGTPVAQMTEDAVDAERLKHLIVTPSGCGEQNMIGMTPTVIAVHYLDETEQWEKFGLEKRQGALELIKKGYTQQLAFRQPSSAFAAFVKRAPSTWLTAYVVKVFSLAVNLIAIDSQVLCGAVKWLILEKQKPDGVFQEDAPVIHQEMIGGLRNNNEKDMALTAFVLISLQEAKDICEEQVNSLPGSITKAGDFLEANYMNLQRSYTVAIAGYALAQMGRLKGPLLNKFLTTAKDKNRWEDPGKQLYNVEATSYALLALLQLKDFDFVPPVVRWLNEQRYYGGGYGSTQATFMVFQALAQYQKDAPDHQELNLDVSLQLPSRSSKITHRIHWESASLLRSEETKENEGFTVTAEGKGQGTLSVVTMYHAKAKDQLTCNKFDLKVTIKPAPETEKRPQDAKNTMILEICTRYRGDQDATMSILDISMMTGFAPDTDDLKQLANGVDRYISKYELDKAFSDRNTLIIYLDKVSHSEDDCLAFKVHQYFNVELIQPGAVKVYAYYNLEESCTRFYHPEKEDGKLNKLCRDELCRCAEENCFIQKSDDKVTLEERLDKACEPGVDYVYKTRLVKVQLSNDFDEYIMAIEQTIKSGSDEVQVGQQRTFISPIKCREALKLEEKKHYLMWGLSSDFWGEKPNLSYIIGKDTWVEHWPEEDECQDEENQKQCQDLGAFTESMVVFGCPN

Binder | Kd [1] | inhibition of hemolysis IC50 [2]
B1 | 3 nM | < 100 nM
B2 | 6.1 nM | < 100 nM
B3 | 8.2 nM | < 100 nM
Ac-SEFCI[Trp(1-Me)]QDWGEHRC[Sar]EGE-{AEEA-AEEA-K(γGlu-Gly-γGlu-17-carboxy-heptadecanoyl)-NH2} (disulfide 4-14) [Compound 123] | 11 nM | < 100 nM
Ac-SEYCI[Trp(1-Me)]QDWGEHRC[Sar]EGE-{AEEA-AEEA-K(γGlu-Gly-γGlu-17-carboxy-heptadecanoyl)-NH2} (disulfide 4-14) [Compound 117] | 24 nM | < 250 nM
Ac-SEFCI[Trp(1-Me)]QEWGEHRC[Sar]EGE-{AEEA-AEEA-K(γGlu-Gly-γGlu-17-carboxy-heptadecanoyl)-NH2} (disulfide 4-14) [Compound 124] | 31 nM | < 100 nM
Ac-SEYCI[Trp(1-Me)]QEWGEHRC[Sar]EGE-{AEEA-AEEA-K(γGlu-Gly-γGlu-17-carboxy-heptadecanoyl)-NH2} (disulfide 4-14) [Compound 125] | 71 nM | < 500 nM
B4 | 11 nM | < 100 nM
B5 | 9.8 nM | < 100 nM
B6 | 28 nM | < 250 nM
